The record followed here is patent publication US6451313.

“And” between values parts separate entries of the source, which are not always exact repeats. Equal values may be shown once.

The target in experiment [1] is HIV-1IIIB gp120/gp41 stably expressed on CHO cells (HIV-1 IIIB). The experiment in a line: cell-based or functional assay.
The target in experiment [2] is recombinant HIV-1 gp120 from the primary isolate HIV-1JR-FL (HIV-1 JR-FL) (UniProt P20871). Put plainly: modified ELISA, gp120 captured on plate, 50% maximal binding.
In experiment [3] the target is recombinant HIV-1 gp120 from the laboratory-adapted strain HIV-1LAI (HIV-1 LAI) (UniProt P03377). The experiment is described as above.

As for “CD4-IgG2 chimeric heterotetramer (Fc fusion)”, in experiment [1], the IC50 of syncytium inhibition (CHO cells expressing HIV-1IIIB gp120/gp41 with C8166 cells) is 9 nM and 1.81 µg/ml; the Relative Potency (mass), relative to sCD4, syncytium inhibition worked out at 5.1 fold; the Relative Potency (molarity), relative to sCD4, syncytium inhibition is 22.2 fold. For the same substance, in experiment [2], the EC50 was 0.64 nM. The EC50 in experiment [3] came out at 1.25 nM.
